Assay results taken from patent publication US20230357348A1 (AstraZeneca / MedImmune, published 2023).
Starred links: 1 amine or outer side, 2 acyl side, 3 side chain; linkers in the order of their positions; H or OH if unused. Non-standard residues stand in square brackets, D forms with d. Groups on a side chain read outwards from the residue. No end group written: not given here. *: point of attachment. C20 diacid = O=C(O)CCCCCCCCCCCCCCCCCCC(=O)*; C18 diacid = O=C(O)CCCCCCCCCCCCCCCCC(=O)*; γGlu = O=C(O)[C@H](CCC(=O)[*:2])N[*:1]; αMeF = C[C@](N)(Cc1ccccc1)C(=O)O; AEEA = NCCOCCOCC(=O)O; Aib = CC(C)(N)C(=O)O

Columns and labels:
[1] = molecular target: human glucagon receptor (hGCGR) (human, UniProt P47871 26-477); assay: cell-based or functional assay
Sequence of human glucagon receptor (hGCGR) (P47871 26-477): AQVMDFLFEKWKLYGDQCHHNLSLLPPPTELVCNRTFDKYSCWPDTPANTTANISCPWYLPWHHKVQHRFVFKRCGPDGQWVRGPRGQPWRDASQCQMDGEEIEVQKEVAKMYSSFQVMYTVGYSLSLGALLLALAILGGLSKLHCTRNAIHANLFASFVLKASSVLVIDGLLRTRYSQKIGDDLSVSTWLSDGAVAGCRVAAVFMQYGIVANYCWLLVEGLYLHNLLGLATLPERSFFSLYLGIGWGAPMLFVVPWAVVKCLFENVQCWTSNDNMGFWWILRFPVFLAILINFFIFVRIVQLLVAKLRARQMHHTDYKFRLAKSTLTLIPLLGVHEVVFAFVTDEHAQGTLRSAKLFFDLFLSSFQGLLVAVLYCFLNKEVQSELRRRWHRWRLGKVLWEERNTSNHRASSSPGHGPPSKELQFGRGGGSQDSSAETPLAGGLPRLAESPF

[2] = molecular target: human GLP-1 receptor (hGLP-1R) (human, UniProt P43220 24-463); assay: cell-based or functional assay

| Binder | hGluc-R EC50 (pM) [1] [pM] | hGLP-1R EC50 (pM) [2] [pM] |
| --- | --- | --- |
| H[Aib]QGTFTSDVSK[αMeF]LDTK([AEEA-AEEA-γGlu-C18 diacid])RARDFVAWLL[Aib]TE-OH (N-terminus assumed; SMILES CC(C)C[C@H](NC(=O)[C@H](Cc1c[nH]c2ccccc12)NC(=O)[C@H](C)NC(=O)[C@@H](NC(=O)[C@H](Cc1ccccc1)NC(=O)[C@H](CC(=O)O)NC(=O)[C@H](CCCNC(=N)N)NC(=O)[C@H](C)NC(=O)[C@H](CCCNC(=N)N)NC(=O)[C@H](CCCCNC(=O)COCCOCCNC(=O)COCCOCCNC(=O)CC[C@H](NC(=O)CCCCCCCCCCCCCCCCC(=O)O)C(=O)O)NC(=O)[C@@H](NC(=O)[C@H](CC(=O)O)NC(=O)[C@H](CC(C)C)NC(=O)[C@](C)(Cc1ccccc1)NC(=O)[C@H](CCCCN)NC(=O)[C@H](CO)NC(=O)[C@@H](NC(=O)[C@H](CC(=O)O)NC(=O)[C@H](CO)NC(=O)[C@@H](NC(=O)[C@H](Cc1ccccc1)NC(=O)[C@@H](NC(=O)CNC(=O)[C@H](CCC(N)=O)NC(=O)C(C)(C)NC(=O)[C@@H](N)Cc1c[nH]cn1)[C@@H](C)O)[C@@H](C)O)C(C)C)[C@@H](C)O)C(C)C)C(=O)N[C@@H](CC(C)C)C(=O)NC(C)(C)C(=O)N[C@H](C(=O)N[C@@H](CCC(=O)O)C(=O)O)[C@@H](C)O) [Peptide 409] | 203 | 22.7 |
| H[Aib]QGTFTSDVSK[αMeF]LDTK([AEEA-AEEA-γGlu-C18 diacid])RAQDFVAWLEAGG-OH (N-terminus assumed; SMILES CC(C)C[C@H](NC(=O)[C@H](Cc1c[nH]c2ccccc12)NC(=O)[C@H](C)NC(=O)[C@@H](NC(=O)[C@H](Cc1ccccc1)NC(=O)[C@H](CC(=O)O)NC(=O)[C@H](CCC(N)=O)NC(=O)[C@H](C)NC(=O)[C@H](CCCNC(=N)N)NC(=O)[C@H](CCCCNC(=O)COCCOCCNC(=O)COCCOCCNC(=O)CC[C@H](NC(=O)CCCCCCCCCCCCCCCCC(=O)O)C(=O)O)NC(=O)[C@@H](NC(=O)[C@H](CC(=O)O)NC(=O)[C@H](CC(C)C)NC(=O)[C@](C)(Cc1ccccc1)NC(=O)[C@H](CCCCN)NC(=O)[C@H](CO)NC(=O)[C@@H](NC(=O)[C@H](CC(=O)O)NC(=O)[C@H](CO)NC(=O)[C@@H](NC(=O)[C@H](Cc1ccccc1)NC(=O)[C@@H](NC(=O)CNC(=O)[C@H](CCC(N)=O)NC(=O)C(C)(C)NC(=O)[C@@H](N)Cc1c[nH]cn1)[C@@H](C)O)[C@@H](C)O)C(C)C)[C@@H](C)O)C(C)C)C(=O)N[C@@H](CCC(=O)O)C(=O)N[C@@H](C)C(=O)NCC(=O)NCC(=O)O) [Peptide 411] | 378 | 98.1 |
| H[Aib]QGTFTSDVSK[αMeF]LDTK([AEEA-AEEA-γGlu-C20 diacid])RAQDFVAWLEAGG-OH (N-terminus assumed; SMILES CC(C)C[C@H](NC(=O)[C@H](Cc1c[nH]c2ccccc12)NC(=O)[C@H](C)NC(=O)[C@@H](NC(=O)[C@H](Cc1ccccc1)NC(=O)[C@H](CC(=O)O)NC(=O)[C@H](CCC(N)=O)NC(=O)[C@H](C)NC(=O)[C@H](CCCNC(=N)N)NC(=O)[C@H](CCCCNC(=O)COCCOCCNC(=O)COCCOCCNC(=O)CC[C@H](NC(=O)CCCCCCCCCCCCCCCCCCC(=O)O)C(=O)O)NC(=O)[C@@H](NC(=O)[C@H](CC(=O)O)NC(=O)[C@H](CC(C)C)NC(=O)[C@](C)(Cc1ccccc1)NC(=O)[C@H](CCCCN)NC(=O)[C@H](CO)NC(=O)[C@@H](NC(=O)[C@H](CC(=O)O)NC(=O)[C@H](CO)NC(=O)[C@@H](NC(=O)[C@H](Cc1ccccc1)NC(=O)[C@@H](NC(=O)CNC(=O)[C@H](CCC(N)=O)NC(=O)C(C)(C)NC(=O)[C@@H](N)Cc1c[nH]cn1)[C@@H](C)O)[C@@H](C)O)C(C)C)[C@@H](C)O)C(C)C)C(=O)N[C@@H](CCC(=O)O)C(=O)N[C@@H](C)C(=O)NCC(=O)NCC(=O)O) [Peptide 412] | 397 | 186 |
| H[Aib]QGTFTSDVSK[αMeF]LDTK([AEEA-AEEA-γGlu-C20 diacid])RARDFVAWLL[Aib]TE-OH (N-terminus assumed; SMILES CC(C)C[C@H](NC(=O)[C@H](Cc1c[nH]c2ccccc12)NC(=O)[C@H](C)NC(=O)[C@@H](NC(=O)[C@H](Cc1ccccc1)NC(=O)[C@H](CC(=O)O)NC(=O)[C@H](CCCNC(=N)N)NC(=O)[C@H](C)NC(=O)[C@H](CCCNC(=N)N)NC(=O)[C@H](CCCCNC(=O)COCCOCCNC(=O)COCCOCCNC(=O)CC[C@H](NC(=O)CCCCCCCCCCCCCCCCCCC(=O)O)C(=O)O)NC(=O)[C@@H](NC(=O)[C@H](CC(=O)O)NC(=O)[C@H](CC(C)C)NC(=O)[C@](C)(Cc1ccccc1)NC(=O)[C@H](CCCCN)NC(=O)[C@H](CO)NC(=O)[C@@H](NC(=O)[C@H](CC(=O)O)NC(=O)[C@H](CO)NC(=O)[C@@H](NC(=O)[C@H](Cc1ccccc1)NC(=O)[C@@H](NC(=O)CNC(=O)[C@H](CCC(N)=O)NC(=O)C(C)(C)NC(=O)[C@@H](N)Cc1c[nH]cn1)[C@@H](C)O)[C@@H](C)O)C(C)C)[C@@H](C)O)C(C)C)C(=O)N[C@@H](CC(C)C)C(=O)NC(C)(C)C(=O)N[C@H](C(=O)N[C@@H](CCC(=O)O)C(=O)O)[C@@H](C)O) [Peptide 410] | 455 | 78 |

The remaining lines, values ahead:

| hGluc-R EC50 (pM) [1] [pM] | hGLP-1R EC50 (pM) [2] [pM] | Binder |
| --- | --- | --- |
| 1020 | 406 | H[Aib]QGTFTSDVSK[αMeF]LDTK([AEEA-AEEA-γGlu-γGlu-C20 diacid])RAQDFVAWLEAGG-OH [Peptide 413] |
| 301 | 14.7 | H[Aib]QGTFTSDVSK[αMeF]LESK([AEEA-AEEA-γGlu-C18 diacid])RAQDFVRWLEA[Aib]G-OH (N-terminus assumed; SMILES CC(C)C[C@H](NC(=O)[C@H](Cc1c[nH]c2ccccc12)NC(=O)[C@H](CCCNC(=N)N)NC(=O)[C@@H](NC(=O)[C@H](Cc1ccccc1)NC(=O)[C@H](CC(=O)O)NC(=O)[C@H](CCC(N)=O)NC(=O)[C@H](C)NC(=O)[C@H](CCCNC(=N)N)NC(=O)[C@H](CCCCNC(=O)COCCOCCNC(=O)COCCOCCNC(=O)CC[C@H](NC(=O)CCCCCCCCCCCCCCCCC(=O)O)C(=O)O)NC(=O)[C@H](CO)NC(=O)[C@H](CCC(=O)O)NC(=O)[C@H](CC(C)C)NC(=O)[C@](C)(Cc1ccccc1)NC(=O)[C@H](CCCCN)NC(=O)[C@H](CO)NC(=O)[C@@H](NC(=O)[C@H](CC(=O)O)NC(=O)[C@H](CO)NC(=O)[C@@H](NC(=O)[C@H](Cc1ccccc1)NC(=O)[C@@H](NC(=O)CNC(=O)[C@H](CCC(N)=O)NC(=O)C(C)(C)NC(=O)[C@@H](N)Cc1c[nH]cn1)[C@@H](C)O)[C@@H](C)O)C(C)C)C(C)C)C(=O)N[C@@H](CCC(=O)O)C(=O)N[C@@H](C)C(=O)NC(C)(C)C(=O)NCC(=O)O) [Peptide 415] |
| 581 | 67.7 | H[Aib]QGTFTSDVSK[αMeF]LESK([AEEA-AEEA-γGlu-C20 diacid])RAQDFVRWLEA[Aib]G-OH (N-terminus assumed; SMILES CC(C)C[C@H](NC(=O)[C@H](Cc1c[nH]c2ccccc12)NC(=O)[C@H](CCCNC(=N)N)NC(=O)[C@@H](NC(=O)[C@H](Cc1ccccc1)NC(=O)[C@H](CC(=O)O)NC(=O)[C@H](CCC(N)=O)NC(=O)[C@H](C)NC(=O)[C@H](CCCNC(=N)N)NC(=O)[C@H](CCCCNC(=O)COCCOCCNC(=O)COCCOCCNC(=O)CC[C@H](NC(=O)CCCCCCCCCCCCCCCCCCC(=O)O)C(=O)O)NC(=O)[C@H](CO)NC(=O)[C@H](CCC(=O)O)NC(=O)[C@H](CC(C)C)NC(=O)[C@](C)(Cc1ccccc1)NC(=O)[C@H](CCCCN)NC(=O)[C@H](CO)NC(=O)[C@@H](NC(=O)[C@H](CC(=O)O)NC(=O)[C@H](CO)NC(=O)[C@@H](NC(=O)[C@H](Cc1ccccc1)NC(=O)[C@@H](NC(=O)CNC(=O)[C@H](CCC(N)=O)NC(=O)C(C)(C)NC(=O)[C@@H](N)Cc1c[nH]cn1)[C@@H](C)O)[C@@H](C)O)C(C)C)C(C)C)C(=O)N[C@@H](CCC(=O)O)C(=O)N[C@@H](C)C(=O)NC(C)(C)C(=O)NCC(=O)O) [Peptide 416] |
| 26.9 | 32.3 | H[Aib]QGTFTSDVSK[αMeF]LDKK([AEEA-AEEA-γGlu-C18 diacid])RARDFVRWLL[Aib]E-OH (N-terminus assumed; SMILES CC(C)C[C@H](NC(=O)[C@H](Cc1c[nH]c2ccccc12)NC(=O)[C@H](CCCNC(=N)N)NC(=O)[C@@H](NC(=O)[C@H](Cc1ccccc1)NC(=O)[C@H](CC(=O)O)NC(=O)[C@H](CCCNC(=N)N)NC(=O)[C@H](C)NC(=O)[C@H](CCCNC(=N)N)NC(=O)[C@H](CCCCNC(=O)COCCOCCNC(=O)COCCOCCNC(=O)CC[C@H](NC(=O)CCCCCCCCCCCCCCCCC(=O)O)C(=O)O)NC(=O)[C@H](CCCCN)NC(=O)[C@H](CC(=O)O)NC(=O)[C@H](CC(C)C)NC(=O)[C@](C)(Cc1ccccc1)NC(=O)[C@H](CCCCN)NC(=O)[C@H](CO)NC(=O)[C@@H](NC(=O)[C@H](CC(=O)O)NC(=O)[C@H](CO)NC(=O)[C@@H](NC(=O)[C@H](Cc1ccccc1)NC(=O)[C@@H](NC(=O)CNC(=O)[C@H](CCC(N)=O)NC(=O)C(C)(C)NC(=O)[C@@H](N)Cc1c[nH]cn1)[C@@H](C)O)[C@@H](C)O)C(C)C)C(C)C)C(=O)N[C@@H](CC(C)C)C(=O)NC(C)(C)C(=O)N[C@@H](CCC(=O)O)C(=O)O) [Peptide 414] |
